Legend:
[1] = target: human PLOD2b GLT-AC truncation (PLOD2b-GA) (human); assay: SEC-MALS; the paper calls it SEC-DLS (size exclusion chromatography with dynamic light scattering); Superdex 200 10/300, miniDAWN TREOS and Optilab T-rEX detectors, 20 mM Tris pH 8, 200 mM NaCl, 3 mg ml^-1, 150 μl injected, 0.5 ml min^-1; molar mass across the peak; each protein analyzed once
[2] = target: the molecule itself; assay: as above

“human PLOD2b GLT-AC truncation (PLOD2b-GA) (domain or fragment)” was tested, and the stoichiometry N [1] was 2.

B1: mimiviral collagen glucosyltransferase R699, wild type (pET28 construct) (enzyme)
chain: EQSNNDDNLLVLGIGISVHKTDGVLRFEKYCQAHNLQYMIVGEGKKWNGGNLESEAGGGQKINELLIALESIKDNKLIVVCDTYDLIPLSGPEEILRKYRFLTPDNKVVFSSELYCWPDASLVERYPKVDTKYKYLNSGAFMGYRDDIYEMIKNGVKDRDDDQLFFSIKFIETDKIVLDYKCELFQAMYRCNSDLVVHKNRIFNGYTNSYPVFAHGNGPAKKLLNHMEGYFMTEPIDGSSNTINTFKLDNEPKVFFALYVDSNDLSALKQFLGKVASIQYGNKVIYLYDRSDNEQNRKLIQISYPNYHTGVTKYVFDDFKKSDAQFYFLLEQNCIITKKDILHELIMQVKDNHRVISPMIGYEQNSTRTNFWGDIEDGYYKRSENYLDLAKHKVRGLWNVPYVYGVILMHESVVRNWDLSMVKYNDKDMDLCFSLRKHTIFMYMINNNNYGYMV
notes: R699 protein of Acanthamoeba polyphaga mimivirus, collagen galactosylhydroxylysyl glucosyltransferase; gene synthesized by Genscript; The vector has a PreScission site in place of the thrombin site, and no cleavage is described for this construct; also called R699WT; mimiviral R699
For B1, the “stoichiometry N” value [2] was 2.
